The record followed here is patent publication US7678885 (GENETICS INSTITUTE, dated 2010).

T1: BMP-2 subunit beginning with amino acid #249 (CHO-produced) (human, UniProt P12643 249-396)
T1 construct: Single subunit; also called BMP-2 subunit #249 Ser-Lev-His
T1 sequence: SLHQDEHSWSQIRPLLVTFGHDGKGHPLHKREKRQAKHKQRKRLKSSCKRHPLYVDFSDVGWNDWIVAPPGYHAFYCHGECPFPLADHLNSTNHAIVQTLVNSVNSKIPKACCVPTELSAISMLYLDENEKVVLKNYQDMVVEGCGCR

B1: BMP-6 subunit beginning with amino acid #375 (CHO-produced) (ligand)
chain: SASSRRRQQSRNRSTQSQDVARVSSASDYNSSELKTACRKHELYVSFQDLGWQDWIIAPKGYAANYCDGECSFPLNAHMNATNHAIVQTLVHLMNPEYVPKPCCAPTKLNAISVLYFDDNSNVILKKYRNMVVRACGCH
notes: Single subunit
B2: BMP-2 subunit beginning with amino acid #283 (CHO-produced) (ligand)
chain: QAKHKQRKRLKSSCKRHPLYVDFSDVGWNDWIVAPPGYHAFYCHGECPFPLADHLNSTNHAIVQTLVNSVNSKIPKACCVPTELSAISMLYLDENEKVVLKNYQDMVVEGCGCR
notes: also called mature BMP-2 subunit
B3: E. coli BMP-2 monomer (mature portion of BMP-2 from plasmid pALBP2-781) (ligand)
chain: MQAKHKQRKRLKSSCKRHPLYVDFSDVGWNDWIVAPPGYHAFYCHGECPFPLADHLNSTNHAIVQTLVNSVNSKIPKACCVPTELSAISMLYLDENEKVVLKNYQDMVVEGCGCR

Series [1] concerns the molecule itself. Nature of the series: purification of BMP-2/6 from CHO 12C07 medium, gel analysis. As to the method: After the completion of sample loading, the column was washed with 10 bed volumes of the equilibration buffer. Bound BMP-2/7 or BMP-2/6 heterodimers were eluted with 5 bed volumes of 100 mM potassium phosphate, 6M urea, pH 7.4. This eluate was loaded directly onto a Vydac C_4 reverse-phase HPLC column equilibrated in water –0.1% TFA. BMP-2/7 or BMP-2/6 heterodimers were eluted with a gradient of 30-50% acetonitrile in water—0.1% trifluoroacetic acid.
Fractions containing BMPs are identified by SDS-PAGE in the presence or absence of reductant. The identity of the BMPs with respect to the heterodimers vs. homodimers is determined by 2D-PAGE (+/−reductant). Fractions with heterodimers gave bands which reduce to two spots. Bands from homodimer fractions reduce to a single spot for each BMP species.

For series [2], the target named is T1, BMP-2 subunit beginning with amino acid …. Kind of series: protein sequencing of purified CHO BMP-2/6 heterodimer subunits. As to the method: (§1) The BMP-2/6 heterodimer subunits are analyzed on a protein sequenator.
In series [3] the target is B1. The description is as above. As to the method:
as §1

Series [4] deals with the molecule itself. Nature of the series: refolding of E. coli monomer, SDS-PAGE with and without reduction.

In the case of B1, the binding result in series [1] and in series [2] was “binds” each time.

Consider B2, for which the binding result in series [3] is “binds”.

B3: the binding result in series [4] was “binds”.
